Measurements: the nanobody polyreactivity screen of Harvey et al. (2022)

Assay: yeast display, Sf9 membrane polyspecificity reagent, FACS + sequencing; frameworks hold sequencing errors
Outline: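 Galactose-induced (36–48 hours) yeast carrying a synthetic nanobody display library were exposed to 10% biotinylated, detergent-solubilized Sf9 membrane reagent at 4 °C for 1 hour. FACS followed streptavidin microbead enrichment, using low and high (top ~1%) gates for expression (anti-HA) and reagent binding (streptavidin). Colony PCR, MiSeq 2 × 250 sequencing and CDR-length filtering followed. Labels for polyreactivity reflect the gate of origin.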

QVQLVESGGGLVQAGGSLRLTCAASGFIFNRYAMGWYRQAPGKERELDADLTGGSTYYAVSVKGRFTISRDNAKKSVYLQLNSVTPEDTAVDYCAADVLPISTLLFRGPGFDSWGQGTQVTFSS
polyreactivity (PSR sort gate): low polyreactivity

QFQLVESGGGLVQAGGSLRLSCAASGSIFGGYAMGWYRQAPGKERELVAAISYRGASTYYADSVKGRFTISRDNAKNTVYLLMNSLKPEDTAVYYCAVAARTRARFLYGYDYWGQGTQVTVSS
polyreactivity (PSR sort gate): low polyreactivity

QVQLVESGGGLVQAGGSLRLSCAASGRIFRAYAMGWYRQAPGKERELVAAISSGGITSYADSVKGRFTISRDNAKNTVYLQMNSLKPEDTAVDYCAALVYPYWGGSMYYWGQGTQVTVSS
polyreactivity (PSR sort gate): high polyreactivity

QDQLVESGGGLVQAGGSLRLSCAASGRLFDLNAMGWNRQAPGTERELVAVISWSGGITYYADSVKGRFTSSRDNAKNTVYLLMNSLKPEDTAVYYCNADTDFDPYYEFDYWGQGTQVTVSS
polyreactivity (PSR sort gate): low polyreactivity

QVQLVESGGGLVQAGGSLRLSCAATGSTFASYAMGWYIQAPGKERELVAAITNGGSTNYADSVKGRFTISRDNAKNNVYLQMNSLNPEDTAVYYCAAYDGFPRRYDYWGQGTQVTVSS
polyreactivity (PSR sort gate): low polyreactivity

QVQLVESGGGLVQAGGSLRLSCAASGITFLPYAMGWYRPAPGKERELVAAITRGGGSTYADSVKGRFTISRDNAKNTVYLQMYSLKPEDTAVYYCNAKGRGWTAQYDYWGQGTQVTVSS
polyreactivity (PSR sort gate): low polyreactivity

QVQLVESGGGLVQAGGSLRLSCAASGFTFAGYAMGWYRQAPGKERELVAAISWRGGSTYYADSVKGRFTISRDNAKNTVYLQMNSLKPEDTAVYYCAAASRKRTSREPLDYWGQGTQVTVSS
polyreactivity (PSR sort gate): high polyreactivity

QVQLVESGGGLVQAGGSLRLSCAASGSIFIYYAMGWKRQAPGKERELVAAISWRGGGTYYADSVKGRFTISRDNAKNTVYLQMNSLKPEDTAVYYCAADFYDPFDYWGQGTQVTVSS
polyreactivity (PSR sort gate): low polyreactivity

QFHLVESGGGLVHAGGSLRLSCAASGNIFPPNTMGWYRQAPGKATELVAVITWSDGGTYADSVKGRFTISRDNAKKTVYLQMNSLKPEDTAVYYCNADYYFAAPKGEYTAWYDYWGKGTQVTVSS
polyreactivity (PSR sort gate): low polyreactivity

QVQLQERAAWCRRAGSLRLSCAASGNISDYYFMGWYRQAPGKERELVAAIAPGSNTYYADSVKGRFTISRDNAKNTVYLQMNSLKPEDTAVCFCAANSTQYSWFDYWGQGTQVPVSS
polyreactivity (PSR sort gate): low polyreactivity

QVQLVESGGGLVQAGGSLRLSCAASGFIFDKYSMGWYRQAPGKERELVAAITDTGGNTYYADSVKGRFTISRDNAKNTVYLQMNILKPEDTAVYYSNADYTDYQTYSATTYEYWGQGTQVTVSS
polyreactivity (PSR sort gate): low polyreactivity

QVQLVESGGGLVQAGGSLRLSCSASGSIFFKYAMGWYRQAPGKERELVASITSRGGTTYYADSVKGRFTISRDNAKNTVYLQMNSLKPEDTAVYYCAALRRSSFGYWGQGTQVTVSS
polyreactivity (PSR sort gate): high polyreactivity

QVQLVESGGGLVQAGGSLRLSCAASGRIFPDYDMGWYRQAPGKERELVAAITQRGGSTYADSVKGRFTISRDNAKNTVYLQMNSLKPEDTSVYYCAREYYEGYEYWGQGTQVTVSS
polyreactivity (PSR sort gate): low polyreactivity

QVQLVESGGGLVQAGGSLRLSSASSRSTFLLNAMGWYRQEPGKERELVAAITWTGGSTYYADSVKGLFTISRDNANNNVYLQMNSLNQEDTAVYYCAAETYVTSYYYWGQGTQVTVSS
polyreactivity (PSR sort gate): low polyreactivity

QVQLVESGGGLVQAGGSLRLSCAASGYTFGTYDKGWYRQAPGKERELVAAISIGGSTNYADSVKGRFTISRDNAKNTVYLQMNSLKPEDTAVYYCAAEVNVGTLLLSVIVEDGDYWGQGTQVTVSS
polyreactivity (PSR sort gate): low polyreactivity

QVQLVESGGGLVQAGGSLRLSCAASGFNFDGYAMGWYRQAPGKERELVAAITYSGGSTYYADSVKGRFTISRDNAKNTVYLQMNSLKPEDTAVYYCAAESYVYGGSDYDYWGQGTQVTVSS
polyreactivity (PSR sort gate): low polyreactivity

QVQLVESGGGLVQAGGSLRLSCAASGFIFYRYTMGCYRQAPGKERELVAGISSRGTRTYYADSVKGRFTISRDNAKNTVYLQMNSLKPEDTAVYYCAKVDGSKRYNYWGQGTQVTVSS
polyreactivity (PSR sort gate): high polyreactivity

QVQLVESGGGLVQAGGSLSLSCAASGSIFQPYVMGWYRQAPGKEREFVATIRYSGGITYADSVKGRFTISRDNSKNTVYLQMNSLKPVVTAVYYCACYCYCYWGQGTQVNVSS
polyreactivity (PSR sort gate): low polyreactivity

QVQLVESGGGLVQAGGSLRLSCAASGFTFWRYAMAWYRQAPWKERDLVAAISRTGGRTYYADSVKGRFTISRDNAKNTVYLQMNSLKPEDTAVDYCAAVKYETYRYNYDYWGQGTQVTVSS
polyreactivity (PSR sort gate): high polyreactivity

QVQLVESGGGLVQAGGSLRLSCAASGYTGVYALGWYRQAPGKERELVADITSGGNTDYADSVKGRFTISRDNAKNTVYLQMNSLKPEDTAVYYCATPYRRLNTWIYDYWGQGTQVTVSS
polyreactivity (PSR sort gate): high polyreactivity

QDQLVESGGGLVQAGGSLRLRCAASGLILANYAMGCYRPAPVKERELVAAISSSGGSKYYADSVKGRFTISRDNAKHTVYFQMNSLKPEDTAVYDCAAYPLYRRRWTGDYWGQGTQVTVSS
polyreactivity (PSR sort gate): high polyreactivity

QVQLVESGGGLVQAGGSLRLSCAASGSIFTYYAMGWYRQAPGKERELVATITGLGGRTYYADSVKGRFTISRDIAKNTVYLQMNSLKPEDTAVYYCAVVPETRYYYWGHGTQVTVSS
polyreactivity (PSR sort gate): high polyreactivity

QVQLEESGGGLVQAGGSLRLSCAASGRTSYSNAMGSYRQAPGQERELVAGITYRGGSTYYADSVKGRFTISRDNAKNTVYLQMNSLKPEDTAVYDCAVKYSWQSRFNYWGQGTQVTVSS
polyreactivity (PSR sort gate): high polyreactivity

QVQLVESGGGLVQAGCSLRLSCAASGFTYARYTMGWYRQAPGKERELVAAISSRGSSTYYADSVKGRFTISRDNAKNSVYLQMNCLKPEDTAVYYCAAPPRYGYDYWGQGTQVTVSS
polyreactivity (PSR sort gate): high polyreactivity

QVQLVESGGGLVQAGGSLRLSCAASGITFYGYVMGWYRQAPGKERELVAAISTSGGSTYYADSVKGRFTISRDNAKNTVYLQMNSLKPEDTAVYYCAKYLYPFYPDYDYWGQGTQVTVSS
polyreactivity (PSR sort gate): high polyreactivity

QVQLVESGGGLVQAGGSLRLSCAASGSTFFTYAMGWYRQAPGKERELVASISIGGSTNYADSVKGRFTISRDNAKNTVYLQMNSLKPEDTAVYYCAIRYFTFGVDYDYWGHGTQVTVSS
polyreactivity (PSR sort gate): low polyreactivity

QVQLVESGGGLVQAGGSLRLSCAASGFTSWYDMGWYRQAPGKEMELVAAISSGGSTNYADSVKGRFTISRDNAKNTVYLEMNSLKPEDTAVYYCNAECYETGVPYFGFYYWGQGTQVTVSS
polyreactivity (PSR sort gate): low polyreactivity

QVQLVESGGGLVHEGGSLRLSCAASGRLFKSYAMGWYRQAPVKERELVAAISRSGGRTYYADSVKGRFTISRDNAKNTVYLQMNSLKPEDTAVYYCAATTFVAPYWGQGTQVTVSS
polyreactivity (PSR sort gate): low polyreactivity

QVQHEESGGGLVQAGGSLRLSCAASGRIFHFNTMGWYRQAPGKERELVAAITSSGGSTNYADSVKGRFTISRDNAKNTVYLQMNSLKPEDTAVYYCNADTGAADYFDFDYWGQGTQVTVSS
polyreactivity (PSR sort gate): low polyreactivity

QVQLVESGGGLVQAGGSLRLSCAASGSSLDYYAMGWSRQAPGKERDLLAAITWSGGRTSYADSVTGRFTISRDNAKNTVYLQMNSLKPEDTAVYYGAAESFLYLLDRASGWQYEYWGQGTQVSVSS
polyreactivity (PSR sort gate): low polyreactivity

LVQLVESGVGLVHAGRSLRLSCAASGSIFPYYTMGWYRPAPGKERELVAAISGSGGSTYYADSVKGRFTISRDNAKNTVYLQMNSLKPEYTAVYYCAAYRRTWFDYWGQGTQVTVSS
polyreactivity (PSR sort gate): high polyreactivity

QVQLVESGGGLVQAGGSLRLSCAASGGNFGTNDMGWYRQAPGKERELVAAITSDSGSTYYADSVKGRFTISRDNAKNTVYLQMNSLKPEDTAVYYCAAEDGPWFYRYGYWGQGTQVTVSS
polyreactivity (PSR sort gate): low polyreactivity

QVQLVESGGGLVQAGGSLRLSCAASGLSSGFNVMGWYRQAPGKERELVAAIRSTGSPKYADSVKGRFTISRDNAKNTVYLQMNSLKPEDTAVYYCFRYSFYLNYWGQGTQVTVSS
polyreactivity (PSR sort gate): high polyreactivity

QVQLVESWGGLVQAGGSLRLSCAASGNIFYFYAMGWYRQAPGKERELVAAITSVGSTKYADSVKGRFTISRDNAKNTVYLEMNCLKPEDTAVYYCAARRWRSYYYWGQGTHVTVSS
polyreactivity (PSR sort gate): high polyreactivity

QVQLVESGGGLVQAGGSLRLSCAASGFIFKDNAMGWYRQAPGKERELVAVSSGTGVRTNYADSVKGRFTISRDNAKNTVYLQMNSLKPEDSAVYYCIADTYRRAQLRFNSWGQGTQVTVSS
polyreactivity (PSR sort gate): low polyreactivity

QGQLVESGGALVQAGGSLRLSCAASGFILPIYAMAWYRQAPGKEREIVAAITWTGGSTYYADSVKGRFTISRDNAKNTVYLQMISLKPEDTAVYYCNVVSDIRLYYRYAYDYWGQGTQVTVSS
polyreactivity (PSR sort gate): high polyreactivity

QVQLVESGGGLVQAGGSLRLSCAASGRNLQQYVMGWYRQAPGKERELVAAITRGGRTNYADSVKGRFTISRDYAKNTVYLLMNSLKQEDTAVYYCKTRYPSRVVAWLDYWGQGTQVNVSS
polyreactivity (PSR sort gate): low polyreactivity

QVQLVESGGGLVQAGGSLRLSCAASGRTFNPNAMGWYRQAPGKERELVATISWSSDSTYYADSVKGRFTISRDNAKNTVYLQMNSLKPEDTAVYYCNAQLSYHWYSPGYDYWGQGTQVTVSS
polyreactivity (PSR sort gate): low polyreactivity

QVQLVESGGGLVQAGGSLRLSCAASGLILSRNTMGWYRQAPGKERELVAAITRRGGSTYYADSVKGRFTISRDNAKNTVYLQMNSLKPEDTAVYYCRLKVGTTSRWSYDYWGQGTQVTVSS
polyreactivity (PSR sort gate): high polyreactivity

QVQLVESGGGLVQAGGSLRLICAASGITFYRYDMGWYRQAPGKERELVAAISTRGGSTYYADSVKGRFTISRDNAKNTVYLQMNSLKPEDTAVYYCAKERVGTSLPFKDYYWGQGTQVTVSS
polyreactivity (PSR sort gate): low polyreactivity

QVQLEESGGGLVQAGGSLRLSCAASGNIFRDYAMGWYRQAPGKERELVAAISWSGGSTYYADSVKGRFTISRDNAKNTVYLQMNSLKPEDTAVYYCAARKPYSYNYWGQGTQVTVSS
polyreactivity (PSR sort gate): high polyreactivity

QVQLVESGGGLVQAGGSLRLISAASGFIFRYNAMGWYRQAPGKESELVATISSGGGNTYYADSVKGRFTISRDNAKNTVYLQMNSLKPEDTAVYYCAARRYYGVYYAFYYWGQGTQVTVSS
polyreactivity (PSR sort gate): high polyreactivity

QVQLVESGGGLVQAGGSLRLSCAASGRTFPNYVIGWYRQATGKERELVAAINSGGRTNYADSVKGRFTISRDNAKNTVYLQMNRLKQEDTAFYFCTKRGHPARLGYYYWGQGTQVTVSS
polyreactivity (PSR sort gate): low polyreactivity
